# System: PI-SceI meganuclease
# Assay: cell_activity
# Details: mouse eggs, purified protein co-injected, DNA/protein 1:25; 3 of 10 embryos; indirect evidence of cleavage
substance,measurement,value
PI-SceI sites in PIFFLago,activity (% transgenic embryos),30

# Source: patent publication US7098031
